Measurements taken from publication PMC12080763.

Legend:
[1] = target: truncated prolactin receptor of Nb2 cells (rat (endogenous in Nb2-11))
[2] = target: truncated prolactin receptor of Nb2 cells (rat (endogenous in Nb2-11)); remark: listed apart in the source

| EC50 of Nb2-11 cell proliferation (Alamar Blue, 3 days), Fig 3C [1] [nM] | EC50 of Nb2-11 cell proliferation (Alamar Blue, 3 days), Fig 3A [2] [nM] | Substance |
| --- | --- | --- |
| 0.81 |  | Fc-(FL3)-mono-hGH (from UniProt P01241 27-217) (Fc fusion) |
|  | 1.64 | Mono-hGH-(FL3)-Fc (from UniProt P01241 27-217) (Fc fusion) |
